B1: FAM164C (parent)
chain: YPHCTGISQQDPESDSQGQGNGLF

Variants of: B1
Experiment: protein stability index of a GFP-peptide fusion (GPS, HEK-293T) (PSI 1-6); higher = more stable
Settings: c terminus: a fixed tail appended
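Note: lentivirally expressed fusions sorted by FACS into six bins by GFP to DsRed ratio, PSI derived from sequencing read proportions per bin multiplied by bin number.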

Point of comparison: YPHCTGISQQDPESDSQGIGNGLF [Q19I], protein stability index 3.26. Against it:
- YPHCTGISQQYPESDSQGQGNGLF [D11Y] — lower, 2.94
- YPHCTGISQQMPESDSQGQGNGLF [D11M] — higher, 3.41
- YPHCTGISQQPPESDSQGQGNGLF [D11P] — higher, 3.85
- YPHCTGISQQFPESDSQGQGNGLF [D11F] — lower, 2.96
- YPHCTGISQQLPESDSQGQGNGLF [D11L] — higher, 3.37
- YPHCTGISQQHPESDSQGQGNGLF [D11H] — lower, 3.12
- YPHCTGISQQWPESDSQGQGNGLF [D11W] — lower, 2.32
- YPHCTCISQQDPESDSQGQGNGLF [G6C] — lower, 2.46
- YPHCTRISQQDPESDSQGQGNGLF [G6R] — higher, 3.45
- YPHCTEISQQDPESDSQGQGNGLF [G6E] — higher, 4.46
- YPHCTQISQQDPESDSQGQGNGLF [G6Q] — higher, 3.58
- YPHCTGISQQDPESDSQGQGNGTF [L23T] — higher, 4.71
- YPHCTGISQQDPESDSQGQGNGAF [L23A] — higher, 4.35
- YPHCTGISQQDPESDSQGQGNGHF [L23H] — higher, 4.89
- YPHCTGISQQDPESDSQGQGYGLF [N21Y] — lower, 3.02
- YPHCTGISQQDPESDSQGQGWGLF [N21W] — lower, 2.35
- YPHCTGESQQDPESDSQGQGNGLF [I7E] — higher, 4.68
- YPHCTGGSQQDPESDSQGQGNGLF [I7G] — higher, 3.83
- YPHCTGRSQQDPESDSQGQGNGLF [I7R] — higher, 3.94
- YPHCTGWSQQDPESDSQGQGNGLF [I7W] — lower, 1.51
- YPHCTGKSQQDPESDSQGQGNGLF [I7K] — higher, 3.56
- YPHCTGFSQQDPESDSQGQGNGLF [I7F] — lower, 2.21
- YPHCTGSSQQDPESDSQGQGNGLF [I7S] — higher, 3.86
- YPHCTGPSQQDPESDSQGQGNGLF [I7P] — higher, 4.18
- YPHCTGISQQDPESDSQGQGNALF [G22A] — higher, 3.78
- YPHCTGISQQDPESDSQGQGNELF [G22E] — higher, 3.76
- YPHCTGISQQDPESDSQGQGNDLF [G22D] — higher, 4.03
- YPHCTGISQQDPESDSQGQGNCLF [G22C] — lower, 3.16
- YPHCTGISQQDPESDSQGQGNVLF [G22V] — higher, 3.73
- YPHCTGISQQDPESDSQGQGNTLF [G22T] — higher, 3.65
- YPHCTGISQQDPENDSQGQGNGLF [S14N] — higher, 3.89
- YPHCTGISQQDPEHDSQGQGNGLF [S14H] — higher, 3.73
- YPHCTGISQQDPESDCQGQGNGLF [S16C] — higher, 3.35
- YPHCTGISQQDPESDPQGQGNGLF [S16P] — higher, 3.92
- YPHCTGISQQDPESDQQGQGNGLF [S16Q] — higher, 3.8
- YPHCTGISQQDPESDRQGQGNGLF [S16R] — higher, 3.31
- YPHCTGISQQDPESDNQGQGNGLF [S16N] — higher, 4.18
- YPYCTGISQQDPESDSQGQGNGLF [H3Y] — lower, 3.2
- YPQCTGISQQDPESDSQGQGNGLF [H3Q] — higher, 3.29
- YPGCTGISQQDPESDSQGQGNGLF [H3G] — higher, 3.39
- YPTCTGISQQDPESDSQGQGNGLF [H3T] — higher, 4.12
- YPHCTGISQQDPESDSHGQGNGLF [Q17H] — higher, 3.36
- YPHCTGISQQDPESDSNGQGNGLF [Q17N] — higher, 4.14
- YPHCTGISQQDPESDSGGQGNGLF [Q17G] — higher, 3.74
- YPHCQGISQQDPESDSQGQGNGLF [T5Q] — higher, 3.89
- YPHCFGISQQDPESDSQGQGNGLF [T5F] — lower, 2.32
- YPHCMGISQQDPESDSQGQGNGLF [T5M] — lower, 2.23
- YPHCCGISQQDPESDSQGQGNGLF [T5C] — lower, 1.9
- YPHCEGISQQDPESDSQGQGNGLF [T5E] — higher, 4.49
- YPHCSGISQQDPESDSQGQGNGLF [T5S] — higher, 3.53
- YPHCTGISQQDPYSDSQGQGNGLF [E13Y] — lower, 2.97
- YPHCTGISQQDPDSDSQGQGNGLF [E13D] — higher, 3.87
- YPHCTGISQQDPLSDSQGQGNGLF [E13L] — lower, 2.81
- YPHCTGISQQDPSSDSQGQGNGLF [E13S] — lower, 3.08
- YPHCTGISHQDPESDSQGQGNGLF [Q9H] — higher, 3.58
- YPHCTGISLQDPESDSQGQGNGLF [Q9L] — lower, 2.98
- YPHCTGIIQQDPESDSQGQGNGLF [S8I] — higher, 3.59
- YPHCTGIDQQDPESDSQGQGNGLF [S8D] — higher, 3.91
- YPHFTGISQQDPESDSQGQGNGLF [C4F] — higher, 3.58
- YPHETGISQQDPESDSQGQGNGLF [C4E] — higher, 4.82
- YPHNTGISQQDPESDSQGQGNGLF [C4N] — higher, 4.25
- YPHTTGISQQDPESDSQGQGNGLF [C4T] — higher, 4.32
- YPHLTGISQQDPESDSQGQGNGLF [C4L] — higher, 4.36
- YPHGTGISQQDPESDSQGQGNGLF [C4G] — higher, 3.5
- YPHCTGISQQDPESDSQGQGNGLM [F24M] — higher, 4.55
- YPHCTGISQQDPESDSQWQGNGLF [G18W] — lower, 2.62
- YPHCTGISQQDPESDSQRQGNGLF [G18R] — higher, 3.83
- HPHCTGISQQDPESDSQGQGNGLF [Y1H] — higher, 4.85
- FPHCTGISQQDPESDSQGQGNGLF [Y1F] — higher, 3.49
- APHCTGISQQDPESDSQGQGNGLF [Y1A] — higher, 5.44
- DPHCTGISQQDPESDSQGQGNGLF [Y1D] — higher, 5.46
- YPHCTGISQQDFESDSQGQGNGLF [P12F] — higher, 3.56
- YPHCTGISQQDQESDSQGQGNGLF [P12Q] — higher, 3.71
- YPHCTGISQQDTESDSQGQGNGLF [P12T] — higher, 3.74
- YPHCTGISQQDPESNSQGQGNGLF [D15N] — higher, 3.84
- YPHCTGISQQDPESQSQGQGNGLF [D15Q] — higher, 3.44
- YPHCTGISQQDPESLSQGQGNGLF [D15L] — lower, 2.8
- YPHCTGISQQDPESTSQGQGNGLF [D15T] — lower, 2.95
- YPHCTGISQQDPESDSQGWGNGLF [Q19W] — lower, 2.75
- YPHCTGISQQDPESDSQGHGNGLF [Q19H] — higher, 3.64
- YPHCTGISQQDPESDSQGYGNGLF [Q19Y] — higher, 3.36
- YPHCTGISQQDPESDSQGLGNGLF [Q19L] — higher, 3.3
- YPHCTGISQQDPESDSQGPGNGLF [Q19P] — higher, 3.86
- YPHCTGISQWDPESDSQGQGNGLF [Q10W] — lower, 2.87
- YPHCTGISQKDPESDSQGQGNGLF [Q10K] — higher, 4
- YCHCTGISQQDPESDSQGQGNGLF [P2C] — lower, 2.45
- YEHCTGISQQDPESDSQGQGNGLF [P2E] — higher, 5.31
- YPHCTGISQQDPESDSQGQENGLF [G20E] — higher, 4.33
- YPHCTGISQQDPESDSQGQRNGLF [G20R] — higher, 3.65
- YPHCTGISQQDPESDSQGQLNGLF [G20L] — lower, 3.11
- YPHCTGISQQDPESDSQGQCNGLF [G20C] — higher, 3.57
- YPHCTGISQQDPESDSQGQDNGLF [G20D] — higher, 4.39
- YPHCTGISQQDPESDSQGQVNGLF [G20V] — higher, 3.44
